Measurements taken from the supplement of paper PMC9112550, “Optimization of the antimicrobial peptide Bac7 by deep mutational scanning” (BMC Biology, 2022).

These sequences were tested on Escherichia coli TOP10 (assay: shrunken log2 fold change of peptide-encoding DNA abundance (4.5 h post-induction vs induction); higher = less antimicrobial activity (less host growth inhibition)). Settings: time post-induction: 4.5 h; library: site-saturation at positions 5, 18, 19, 20.
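Further: peptides expressed intracellularly from a pBAD plasmid library in pooled LB shake-flask culture, induced with 0.3% L-arabinose, DNA abundance read by NGS, three biological replicates, DESeq2 with apeglm shrinkage.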

Row | Sequence | shrunken log2 fold change
1 | RRIRDRPPRLPRPRPRPSFKPRP | -0.0471
2 | RRIRDRPPRLPRPRPRPSFRPRP | -0.198
3 | RRIRDRPPRLPRPRPRPSGDPRP | 0.163
4 | RRIRDRPPRLPRPRPRPSHRPRP | 0.102
5 | RRIRDRPPRLPRPRPRPSHVPRP | -0.401
6 | RRIRDRPPRLPRPRPRPSIGPRP | 0.154
7 | RRIRDRPPRLPRPRPRPSISPRP | -0.0844
8 | RRIRDRPPRLPRPRPRPSKLPRP | -0.317
9 | RRIRDRPPRLPRPRPRPSKVPRP | -0.152
10 | RRIRDRPPRLPRPRPRPSNDPRP | 0.0978
11 | RRIRDRPPRLPRPRPRPSNEPRP | -1.13
12 | RRIRDRPPRLPRPRPRPSNYPRP | -0.29
13 | RRIRDRPPRLPRPRPRPSPHPRP | -0.0473
14 | RRIRDRPPRLPRPRPRPSREPRP | -0.0011
15 | RRIRDRPPRLPRPRPRPSRSPRP | 0.0199
16 | RRIRDRPPRLPRPRPRPSSAPRP | 0.0666
17 | RRIRDRPPRLPRPRPRPSSPPRP | -0.341
18 | RRIRDRPPRLPRPRPRPSTFPRP | 0.11
19 | RRIRDRPPRLPRPRPRPSWQPRP | 0.321
20 | RRIRDRPPRLPRPRPRPSWRPRP | 0.0848
21 | RRIRDRPPRLPRPRPRPTCPPRP | -0.119
22 | RRIRDRPPRLPRPRPRPTCWPRP | 1.09
23 | RRIRDRPPRLPRPRPRPTDVPRP | -0.0358
24 | RRIRDRPPRLPRPRPRPTEAPRP | 0.405
25 | RRIRDRPPRLPRPRPRPTEIPRP | 0.23

Row | Sequence | shrunken log2 fold change
26 | RRIRDRPPRLPRPRPRPTELPRP | 0.103
27 | RRIRDRPPRLPRPRPRPTEYPRP | -0.154
28 | RRIRDRPPRLPRPRPRPTFIPRP | -0.13
29 | RRIRDRPPRLPRPRPRPTFWPRP | 0.588
30 | RRIRDRPPRLPRPRPRPTHAPRP | 0.148
31 | RRIRDRPPRLPRPRPRPTHRPRP | 0.0815
32 | RRIRDRPPRLPRPRPRPTIFPRP | 0.0643
33 | RRIRDRPPRLPRPRPRPTILPRP | 0.242
34 | RRIRDRPPRLPRPRPRPTIRPRP | 0.124
35 | RRIRDRPPRLPRPRPRPTKRPRP | 0.123
36 | RRIRDRPPRLPRPRPRPTKYPRP | -0.286
37 | RRIRDRPPRLPRPRPRPTLFPRP | 0.533
38 | RRIRDRPPRLPRPRPRPTMAPRP | 0.695
39 | RRIRDRPPRLPRPRPRPTMCPRP | -0.107
40 | RRIRDRPPRLPRPRPRPTNEPRP | 0.265
41 | RRIRDRPPRLPRPRPRPTNFPRP | -0.208
42 | RRIRDRPPRLPRPRPRPTNHPRP | -0.247
43 | RRIRDRPPRLPRPRPRPTPTPRP | 0.194
44 | RRIRDRPPRLPRPRPRPTQNPRP | 0.789
45 | RRIRDRPPRLPRPRPRPTSDPRP | 0.347
46 | RRIRDRPPRLPRPRPRPTSKPRP | 0.168
47 | RRIRDRPPRLPRPRPRPTVMPRP | -0.221
48 | RRIRDRPPRLPRPRPRPTVVPRP | 0.149
49 | RRIRDRPPRLPRPRPRPTWCPRP | 0.18
50 | RRIRDRPPRLPRPRPRPTWNPRP | -0.07

Row | Sequence | shrunken log2 fold change
51 | RRIRDRPPRLPRPRPRPTYFPRP | -0.0127
52 | RRIRDRPPRLPRPRPRPTYQPRP | -0.0238
53 | RRIRDRPPRLPRPRPRPTYRPRP | -0.224
54 | RRIRDRPPRLPRPRPRPTYTPRP | 0.319
55 | RRIRDRPPRLPRPRPRPTYWPRP | 0.01
56 | RRIRDRPPRLPRPRPRPVCFPRP | 0.599
57 | RRIRDRPPRLPRPRPRPVCTPRP | 0.0514
58 | RRIRDRPPRLPRPRPRPVCWPRP | 0.747
59 | RRIRDRPPRLPRPRPRPVKLPRP | -0.896
60 | RRIRDRPPRLPRPRPRPVKSPRP | -0.00931
61 | RRIRDRPPRLPRPRPRPVKWPRP | 0.00911
62 | RRIRDRPPRLPRPRPRPVLKPRP | 0.0359
63 | RRIRDRPPRLPRPRPRPVMWPRP | 0.783
64 | RRIRDRPPRLPRPRPRPVPLPRP | 0.0621
65 | RRIRDRPPRLPRPRPRPVPQPRP | 0.0622
66 | RRIRDRPPRLPRPRPRPVRFPRP | 0.189
67 | RRIRDRPPRLPRPRPRPVSLPRP | -0.442
68 | RRIRDRPPRLPRPRPRPVTSPRP | -0.2
69 | RRIRDRPPRLPRPRPRPVVNPRP | 0.24
70 | RRIRDRPPRLPRPRPRPVVWPRP | 0.902
71 | RRIRDRPPRLPRPRPRPVWIPRP | -0.125
72 | RRIRDRPPRLPRPRPRPVYLPRP | -0.219
73 | RRIRDRPPRLPRPRPRPWAFPRP | -0.01
74 | RRIRDRPPRLPRPRPRPWEMPRP | 0.335
75 | RRIRDRPPRLPRPRPRPWFKPRP | -0.203

Row | Sequence | shrunken log2 fold change
76 | RRIRDRPPRLPRPRPRPWFLPRP | 0.109
77 | RRIRDRPPRLPRPRPRPWGNPRP | -0.0163
78 | RRIRDRPPRLPRPRPRPWHCPRP | 0.102
79 | RRIRDRPPRLPRPRPRPWILPRP | -0.201
80 | RRIRDRPPRLPRPRPRPWIRPRP | -0.24
81 | RRIRDRPPRLPRPRPRPWISPRP | -0.00776
82 | RRIRDRPPRLPRPRPRPWLHPRP | -0.00955
83 | RRIRDRPPRLPRPRPRPWMAPRP | -0.499
84 | RRIRDRPPRLPRPRPRPWNAPRP | 0.0296
85 | RRIRDRPPRLPRPRPRPWPAPRP | 0.308
86 | RRIRDRPPRLPRPRPRPWPIPRP | 0.00865
87 | RRIRDRPPRLPRPRPRPWSFPRP | 0.0765
88 | RRIRDRPPRLPRPRPRPWVPPRP | 0.164
89 | RRIRDRPPRLPRPRPRPWVSPRP | -0.0385
90 | RRIRDRPPRLPRPRPRPWWFPRP | -0.00226
91 | RRIRDRPPRLPRPRPRPWWRPRP | 0.116
92 | RRIRDRPPRLPRPRPRPWYMPRP | -0.315
93 | RRIRDRPPRLPRPRPRPYCIPRP | -0.205
94 | RRIRDRPPRLPRPRPRPYCWPRP | 0.085
95 | RRIRDRPPRLPRPRPRPYDRPRP | -0.0075
96 | RRIRDRPPRLPRPRPRPYEDPRP | 0.0115
97 | RRIRDRPPRLPRPRPRPYEPPRP | -0.017
98 | RRIRDRPPRLPRPRPRPYFAPRP | -0.413
99 | RRIRDRPPRLPRPRPRPYFHPRP | -0.678
100 | RRIRDRPPRLPRPRPRPYHKPRP | -0.0174

Row | Sequence | shrunken log2 fold change
101 | RRIRDRPPRLPRPRPRPYIWPRP | -0.373
102 | RRIRDRPPRLPRPRPRPYKQPRP | -0.0404
103 | RRIRDRPPRLPRPRPRPYKVPRP | -0.687
104 | RRIRDRPPRLPRPRPRPYKYPRP | -0.661
105 | RRIRDRPPRLPRPRPRPYLDPRP | -0.0026
106 | RRIRDRPPRLPRPRPRPYPTPRP | -0.635
107 | RRIRDRPPRLPRPRPRPYPWPRP | -0.136
108 | RRIRDRPPRLPRPRPRPYQKPRP | 0.0212
109 | RRIRDRPPRLPRPRPRPYRKPRP | -0.0111
110 | RRIRDRPPRLPRPRPRPYRMPRP | -0.0515
111 | RRIRDRPPRLPRPRPRPYRRPRP | -0.0062
112 | RRIRDRPPRLPRPRPRPYSWPRP | 0.016
113 | RRIRDRPPRLPRPRPRPYTVPRP | -0.00865
114 | RRIRDRPPRLPRPRPRPYVHPRP | -0.407
115 | RRIRDRPPRLPRPRPRPYVSPRP | -0.032
116 | RRIRDRPPRLPRPRPRPYWTPRP | -0.195
117 | RRIRDRPPRLPRPRPRPYYHPRP | -0.972
118 | RRIRDRPPRLPRPRPRPYYQPRP | -1.03
119 | RRIRDRPPRLPRPRPRPYYSPRP | 0.0804
120 | RRIRERPPRLPRPRPRPAAQPRP | 0.261
121 | RRIRERPPRLPRPRPRPAASPRP | 0.141
122 | RRIRERPPRLPRPRPRPAAWPRP | 0.443
123 | RRIRERPPRLPRPRPRPACEPRP | -0.112
124 | RRIRERPPRLPRPRPRPACGPRP | 0.14
125 | RRIRERPPRLPRPRPRPACTPRP | -0.224

Row | Sequence | shrunken log2 fold change
126 | RRIRERPPRLPRPRPRPAEWPRP | 0.143
127 | RRIRERPPRLPRPRPRPAFQPRP | 0.0677
128 | RRIRERPPRLPRPRPRPAILPRP | -0.629
129 | RRIRERPPRLPRPRPRPAIPPRP | -0.737
130 | RRIRERPPRLPRPRPRPALSPRP | 0.15
131 | RRIRERPPRLPRPRPRPALYPRP | -0.129
132 | RRIRERPPRLPRPRPRPAMQPRP | 0.0339
133 | RRIRERPPRLPRPRPRPAQKPRP | 0.192
134 | RRIRERPPRLPRPRPRPASDPRP | -0.105
135 | RRIRERPPRLPRPRPRPASNPRP | -0.257
136 | RRIRERPPRLPRPRPRPATEPRP | -0.155
137 | RRIRERPPRLPRPRPRPATGPRP | -0.0619
138 | RRIRERPPRLPRPRPRPAVIPRP | -0.12
139 | RRIRERPPRLPRPRPRPAVNPRP | -0.00945
140 | RRIRERPPRLPRPRPRPAVWPRP | 0.421
141 | RRIRERPPRLPRPRPRPAWYPRP | -0.179
142 | RRIRERPPRLPRPRPRPAYRPRP | -0.429
143 | RRIRERPPRLPRPRPRPCAMPRP | -0.0091
144 | RRIRERPPRLPRPRPRPCAPPRP | -0.215
145 | RRIRERPPRLPRPRPRPCCCPRP | 0.15
146 | RRIRERPPRLPRPRPRPCCMPRP | -0.831
147 | RRIRERPPRLPRPRPRPCDKPRP | 0.0148
148 | RRIRERPPRLPRPRPRPCEKPRP | 0.0102
149 | RRIRERPPRLPRPRPRPCEYPRP | -0.0121
150 | RRIRERPPRLPRPRPRPCFIPRP | -0.73
